Measured values reported in patent US20250152729A1 (CANCER RESEARCH TECHNOLOGY, published 2025).
Residue numbers refer to the chain shown, from its start. Names may count otherwise.

T1: human SEMA4A expressed on cells (UniProt ID Q9H3S1, isoform 1) (human, UniProt Q9H3S1 33-761)
T1 construct: Cell-surface SEMA4A: endogenous on MM.1S, NCI-H929 and Karpas-25 cells, or expi293 cells transfected with Origene SC323738; also called human Semaphorin4A; SEMA4A endogenously expressed on MM.1S cells
T1 sequence: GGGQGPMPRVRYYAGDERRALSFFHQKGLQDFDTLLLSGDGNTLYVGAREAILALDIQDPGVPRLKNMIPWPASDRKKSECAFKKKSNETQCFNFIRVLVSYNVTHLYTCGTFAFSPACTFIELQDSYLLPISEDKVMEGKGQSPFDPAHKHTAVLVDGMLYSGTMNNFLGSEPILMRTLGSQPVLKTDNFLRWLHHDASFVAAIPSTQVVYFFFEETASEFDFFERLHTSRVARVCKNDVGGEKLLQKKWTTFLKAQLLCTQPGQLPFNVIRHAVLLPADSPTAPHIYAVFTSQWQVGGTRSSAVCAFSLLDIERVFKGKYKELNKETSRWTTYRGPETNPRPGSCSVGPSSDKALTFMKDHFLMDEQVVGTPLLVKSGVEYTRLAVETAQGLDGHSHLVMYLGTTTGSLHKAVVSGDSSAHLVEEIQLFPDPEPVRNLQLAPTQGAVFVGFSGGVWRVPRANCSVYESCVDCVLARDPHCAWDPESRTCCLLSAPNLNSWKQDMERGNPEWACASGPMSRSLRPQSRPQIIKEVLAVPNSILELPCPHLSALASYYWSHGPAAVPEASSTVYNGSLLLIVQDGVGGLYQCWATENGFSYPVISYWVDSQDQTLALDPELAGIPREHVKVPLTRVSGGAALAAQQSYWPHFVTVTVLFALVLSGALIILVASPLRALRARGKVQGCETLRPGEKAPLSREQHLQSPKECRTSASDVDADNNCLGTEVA

T2: human SEMA4B expressed on expi293 cells (human, UniProt Q9NPR2 44-837)
T2 construct: whole, on cells
T2 sequence (looked up): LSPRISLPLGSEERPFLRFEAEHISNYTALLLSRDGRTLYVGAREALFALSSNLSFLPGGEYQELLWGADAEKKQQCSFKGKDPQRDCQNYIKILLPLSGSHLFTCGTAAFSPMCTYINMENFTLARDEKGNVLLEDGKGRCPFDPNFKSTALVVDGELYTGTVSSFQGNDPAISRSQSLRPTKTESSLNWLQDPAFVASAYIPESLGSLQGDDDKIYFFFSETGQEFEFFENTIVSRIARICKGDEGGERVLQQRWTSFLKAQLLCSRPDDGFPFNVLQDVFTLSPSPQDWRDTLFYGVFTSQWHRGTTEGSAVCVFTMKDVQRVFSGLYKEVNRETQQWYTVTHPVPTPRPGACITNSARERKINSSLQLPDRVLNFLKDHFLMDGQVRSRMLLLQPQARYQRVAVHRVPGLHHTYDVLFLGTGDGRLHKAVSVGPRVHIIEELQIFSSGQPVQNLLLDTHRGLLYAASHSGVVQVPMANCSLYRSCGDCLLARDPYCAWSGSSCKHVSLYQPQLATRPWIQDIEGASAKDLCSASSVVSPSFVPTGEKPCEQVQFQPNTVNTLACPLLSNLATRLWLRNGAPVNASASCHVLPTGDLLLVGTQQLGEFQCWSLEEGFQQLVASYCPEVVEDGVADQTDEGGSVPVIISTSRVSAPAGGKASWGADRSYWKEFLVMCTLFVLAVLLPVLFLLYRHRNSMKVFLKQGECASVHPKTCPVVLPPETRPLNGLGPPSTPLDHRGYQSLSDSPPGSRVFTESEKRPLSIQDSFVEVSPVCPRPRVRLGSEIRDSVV

T3: mouse SEMA4A expressed on expi293 cells (UniProt ID Q62178) (mouse, UniProt Q62178 33-760)
T3 construct: Transient transfection in expi293 cells
T3 sequence: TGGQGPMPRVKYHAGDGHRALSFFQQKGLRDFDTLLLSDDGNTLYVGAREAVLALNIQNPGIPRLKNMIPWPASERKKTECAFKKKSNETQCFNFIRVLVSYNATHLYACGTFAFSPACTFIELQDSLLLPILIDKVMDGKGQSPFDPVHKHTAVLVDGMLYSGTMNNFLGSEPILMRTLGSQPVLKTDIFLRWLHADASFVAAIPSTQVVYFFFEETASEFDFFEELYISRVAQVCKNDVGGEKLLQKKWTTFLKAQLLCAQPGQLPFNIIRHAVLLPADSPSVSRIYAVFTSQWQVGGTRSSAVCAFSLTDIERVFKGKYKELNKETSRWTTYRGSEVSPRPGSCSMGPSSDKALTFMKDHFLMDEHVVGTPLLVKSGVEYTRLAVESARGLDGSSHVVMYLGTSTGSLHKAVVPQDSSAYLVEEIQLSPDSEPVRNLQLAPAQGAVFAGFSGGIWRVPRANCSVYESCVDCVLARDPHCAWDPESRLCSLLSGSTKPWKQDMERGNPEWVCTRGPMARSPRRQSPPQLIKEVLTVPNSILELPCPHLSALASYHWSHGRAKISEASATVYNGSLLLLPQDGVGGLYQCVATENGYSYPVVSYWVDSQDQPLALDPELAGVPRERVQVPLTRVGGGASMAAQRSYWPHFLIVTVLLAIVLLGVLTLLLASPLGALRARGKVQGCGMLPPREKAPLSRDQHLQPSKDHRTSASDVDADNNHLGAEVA

T4: cynomolgus SEMA4A expressed on expi293 cells (UniProt ID G7NV79) (cynomolgus, UniProt Q9H3S1 33-761 (human entry))
T4 construct: Transient transfection in expi293 cells; also called cyno SEMA4A
T4 chain: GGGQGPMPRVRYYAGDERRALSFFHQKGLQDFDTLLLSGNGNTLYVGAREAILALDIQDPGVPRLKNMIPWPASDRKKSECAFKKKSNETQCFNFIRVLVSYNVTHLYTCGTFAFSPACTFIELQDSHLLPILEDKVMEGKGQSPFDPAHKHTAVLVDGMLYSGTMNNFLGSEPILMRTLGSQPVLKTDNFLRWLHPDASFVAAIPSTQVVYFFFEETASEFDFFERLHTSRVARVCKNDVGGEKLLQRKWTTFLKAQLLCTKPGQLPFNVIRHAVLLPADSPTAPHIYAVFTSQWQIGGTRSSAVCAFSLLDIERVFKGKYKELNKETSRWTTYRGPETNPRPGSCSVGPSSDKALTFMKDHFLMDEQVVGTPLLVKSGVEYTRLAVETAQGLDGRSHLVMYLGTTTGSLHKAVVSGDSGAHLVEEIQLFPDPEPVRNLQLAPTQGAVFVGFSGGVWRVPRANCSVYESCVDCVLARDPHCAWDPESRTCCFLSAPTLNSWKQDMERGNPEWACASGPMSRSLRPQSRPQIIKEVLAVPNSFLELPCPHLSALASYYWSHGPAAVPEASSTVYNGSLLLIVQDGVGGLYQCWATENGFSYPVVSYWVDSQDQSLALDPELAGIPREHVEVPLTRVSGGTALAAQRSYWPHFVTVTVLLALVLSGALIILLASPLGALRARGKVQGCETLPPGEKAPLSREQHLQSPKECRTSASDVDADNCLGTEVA

B1: C0120924 (antibody, V domains shown)
VH: QVQLVQSGAEVKKPGASVKVSCKASGYKLNDPGVHGVSWVRQAPGQGLEWMGWISTLNGDTRYAQKFQGRVTMTTDSSTSTIYMELRSLRSDDTAVYYCARDDYTAIFDFWGQGTLVTVSS
VL: SSVLTQPPSVSVAPGQTARITCGGSNIGSQSVHWYQQKPGQAPVLVVYDDSDRPSGIPERFSGSKSGNTATLTISRVEAGDEADYYCQVWDSSTDHHVFGTGTKVTVL
modifications: 239iCys and S442C (EU numbering) in the constant region
notes: one of the 6 germlined clones of m49; purified, unconjugated; also called C0120924 germlined human Alya IgG1
B2: C0120920 (antibody, V domains shown)
VH: B1 VH with Q1E, A9P, V20I, G59A, T74A, E85D, R90K, V96L, Q113R
VL: B1 VL with S1Q, R19S, T71S, T73I, I74L
modifications: 239iCys and S442C (EU numbering) in the constant region
notes: purified, unconjugated; also called C0120920 human Alya IgG1 (unconjugated)
B3: C0120921 (antibody, V domains shown)
VH: B1 VH with Q1E, A9P, V20I, N58Q, T74A, E85D, R90K, V96L, Q113R
VL: B1 VL with S1Q, R19S, T71S, T73I, I74L
modifications: 239iCys and S442C (EU numbering) in the constant region
notes: purified, unconjugated; also called C0120921 human Alya IgG1 (unconjugated)
B4: C0120923 (antibody, V domains shown)
VH: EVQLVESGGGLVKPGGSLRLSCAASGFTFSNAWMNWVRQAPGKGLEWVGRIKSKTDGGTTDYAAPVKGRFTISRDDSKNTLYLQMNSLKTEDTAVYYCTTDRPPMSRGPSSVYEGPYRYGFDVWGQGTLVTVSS
VL: NFMLTQPHSVSESPGKTVTISCTGSGGNIVDNFVQWHQQRPGSSPTTVIYEDDQRPSGVPDRFSASVDSSSNSGSLTISGLKTEDEADYYCQSYDGANRWVFGGGTKLTVL
modifications: 239iCys and S442C (EU numbering) in the constant region
notes: one of the 6 germlined clones of m49; purified, unconjugated; also called C0120923 germlined human Alya IgG1

How the values were obtained:
[1] = target: T1, human SEMA4A expressed on cells …; assay: Mirrorball direct binding, dilution series on expi293 cells transiently transfected with human SEMA4A, anti-human Alexa Fluor 647
Source text: (§1) Hits from the primary screening were re-formatted into the human Alya IgG1 vector and re-expressed and purified as described in section 4.1. In addition, a single clone was identified that contained an Asparagine deamidation motif (Asn Gly) within its VHCDR2. This potential sequence liability was de-risked by synthesising de novo two clonal variant VH genes (Asn Ala and Gln Gly) and cloning these sequences into the human Alya IgG1 expression vector. To determine the specificity profile of each purified human Alya IgG1, a dilution series was tested for binding to human SEMA4A, mouse SEMA4A, cyno SEMA4A, human SEMA4B and mock transfected cells (transient transfections set up in expi 293 cells.) The five assays employed methods described in section 2.3, using the appropriate cells and substituting the un-purified scFv periplasmic preparation with the recombinant human Alya IgG1 dilution series. Data was analysed as Count x median mean intensity (x FLU).

[2] = target: T2, human SEMA4B expressed on expi293 cells; assay: Mirrorball direct binding, dilution series on expi293 cells transiently transfected with human SEMA4B, anti-human Alexa Fluor 647
Source text: as §1

[3] = target: T3, mouse SEMA4A expressed on expi293 cells …; assay: Mirrorball direct binding, dilution series on expi293 cells transiently transfected with mouse SEMA4A, anti-human Alexa Fluor 647
Source text: as §1

[4] = target: T4, cynomolgus SEMA4A expressed on expi293 …; assay: Mirrorball direct binding, dilution series on expi293 cells transiently transfected with cynomolgus SEMA4A, anti-human Alexa Fluor 647
Source text: as §1

Row | Binder | binding result [1] | binding result [2] | binding result [3] | binding result [4]
1 | B1 | binds | no binding (tested: log (M) -8 (1e-8 M)) | binds | binds
2 | B2 | binds | no binding (tested: log (M) -8 (1e-8 M)) | binds | –
3 | B3 | binds | no binding (tested: log (M) -8 (1e-8 M)) | binds | –
4 | B4 | binds | no binding (tested: log (M) -8 (1e-8 M)) | binds | binds
